Test results reported in the RNAGym collection of RNA variant scans (doi:10.1073/pnas.2313332121).

B1: TPR t1 (parent)
chain: GACCAAUCUGCCCUCAGAGCUCGAGAACAUCUUCGGAUGCAGAGGAGGCAGGCUUCGGUGGCGCGAUAGCGCCAACGUCCUCAACCUCCAAUGCAUCCCACCACAUGAUGAUGCCUGAAGAGCCUUGGUUUUUUG

Variants of: B1
Test: polymerase ribozyme fitness, log enrichment relative to wild type (log ratio); higher = more active; in vitro selection for triplet polymerase activity
Outline: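 A heterodimeric triplet polymerase ribozyme had each of its subunits mutagenized by PCR into a library, which was transcribed. One round of in vitro selection, done in triplicate, annealed each library with a biotinylated primer, its partner subunit and triplets, then incubated it frozen at −7 °C before gel excision of extended constructs, streptavidin-bead capture and RT-PCR. Fitness is the logarithm of genotype enrichment relative to wild-type enrichment, based on Illumina sequencing of inputs and outputs and inverse-variance-weighted replicate averages. A base-2 logarithm is used, and genotypes were kept only with ≥10 input reads and ≥1 read per output.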

| Variant | polymerase ribozyme fitness (log ratio) |
| --- | --- |
| C34A A41G C88U C101U | -3.38 |
| U32C U78A A84G G122A | -2 |
| U32G G57A C123U | -7.55 |
| U33G G63C | -5.3 |
| C34A G93A | -2.95 |
| C34A G93C | -3.62 |
| U32C C72A C101U U112A C123G | -3.08 |
| C34A G120C U130G | -3.21 |
| C34A U59C G127C | -4.66 |
| C34G A50G C70G A74U A83C G110U U112G G120C | -6.67 |
| U33G C49G G58C A121C | -6.04 |
| U32C G45A G63C C114U | -2.97 |
| C34A C89U U112A U133A | -1.77 |
| U32C C102G G113A | -7.53 |
| C31U C49U C76G U81G U96A C104U A108U C124G U130C | -5.23 |
| U32C C49G C73G C88G A95C | -5.8 |
| U33C G61A U116C C124G | -5.41 |
| U32G G57C C76U C82G C85U C114G | -7.16 |
| U33A A119G G120A | -3.37 |
| C34A A37C C72U A118G | -2.87 |
| C34A A50U A83G | -4.58 |
| U32G G48U C72G C102U G120C | -7.94 |
| C31U U112A | -3.16 |
| C31U C72G G120C | -5.23 |

| Variant | polymerase ribozyme fitness (log ratio) |
| --- | --- |
| C34A C56A | -3.11 |
| C34A C56U | -2.12 |
| C31U U87C G113U C123G U132A | -5.61 |
| U32C A50G A118U U131G | -1.27 |
| C31U G51A C73U U106A | -3.91 |
| C31U A68U C114A G117C C124A | -5.73 |
| C31U A84C C97A A121U | -6.87 |
| C34A C85U A118U U130A U132C | -3.6 |
| C34A C70U G120C | -4.45 |
| C31G U55C G60A U116C | -6.66 |
| C34A G69U G135U | -0.532 |
| U32C C53U C56A A118U | 0.16 |
| U32A G117A | -5.64 |
| U32A C40U C101A C124A | -3.05 |
| C31U C123G | -2.99 |
| C34A A37U G48U C64G A68G C94G G120U | -7.45 |
| U33A C86G C114U | -4.98 |
| U33C G63A U78C C80A C99A C102A U116G | -6.04 |
| C34A C94A | -4.19 |
| C34A G61C | -4.99 |
| C34A G61U | -3.25 |
| C34A A41G A74U C88U C101U | -4.89 |
| U33A C97A C123G | -4.21 |
| C31U G44C G60A | -5.87 |

| Variant | polymerase ribozyme fitness (log ratio) |
| --- | --- |
| U32C G42C U54G C94A | -2.1 |
| U33C C79U | -4.51 |
| U32A G48C | -5.23 |
| U33G U87G | -5.18 |
| U33A A37U U55C G63U A100C | -7.2 |
| C31U G44U | -5.33 |
| U33A G42A G52U G61A A121U | -5.46 |
| U32C G63A U78G C98U G117U | -6.07 |
| C34A C73G U106A | -4.25 |
| C34A A66U C101U | -5.31 |
| U33A U81A C102G G110C C115G | -6.08 |
| C31U U38C | -5.6 |
| C34A C72G | -3.33 |
| C31U C49G | -4.41 |
| U33A G44A C72A U112G | -6.21 |
| C34A C86A | -3.67 |
| U33A A68U | -7.2 |
| C31U U129G | -5.03 |
| U32G G69U | -4.52 |
| C34A G117C | -4.31 |
| C34A G117A | -3.53 |
| C31U C53G C124A | -3.5 |
| U32C C56A U116G G122A U132C | -3.25 |
| C34A A37G | -2.73 |

| Variant | polymerase ribozyme fitness (log ratio) |
| --- | --- |
| C34A G44U G71A C114A | -6.89 |
| C31U C89U | -5.93 |
| C31U C89G | -5.1 |
| U32C U78C C89A | -1.52 |
| C34A C64U C94U | -3.02 |
| C34A A119G | -2.03 |
| U33G G71A G117U | -8.01 |
| U32C C86U C101U C114A | -4.6 |
| C34A A37G C53U U78G | -2.19 |
| U33G C94G G113A | -5.56 |
| U33G G69A | -7.83 |
| U33G G63U A90U A111G G120C | -6.96 |
| U32A C49G C123U | -4.37 |
| C31U A111G | -5.05 |
| C34A | -2.52 |
| C34G | -6.09 |
| U32C C49G G52C U96C | -1.52 |
| U32C C98A U106A | -6.32 |
| U32C A75G C124A | 1.81 |
| U32C G39U C56U G58C | -0.298 |
| U33G C73G G93U A121G | -5.53 |
| U32A C56G G60C C62A A121C | -6.89 |
| C31U U32A G47C G61C G63A C115U | -7.14 |
| U33A G44C G57U A121G | -4.61 |

| Variant | polymerase ribozyme fitness (log ratio) |
| --- | --- |
| C31U G39C G44U C85G G110C | -6.47 |
| U33G G120U | -5.27 |
| U32C U106G U112G | -0.955 |
| U32C G71U U129A | -1.48 |
| U33A C56G G71U G93U C99U G110U G127C | -6.53 |
| U33G C34A G48U G117C | -7.42 |
| U33C C72U | -3.04 |
| U33G C97A | -5.28 |
| U32C A37U U38A G48U U96G | -1.88 |
| C31U A37G G69U | -3.72 |
| U32A G44A G63C U87C | -4.85 |
| U32C U92A U96C U132A | -2.97 |
| C34A C73A C85U U130A | -4.99 |
| U33C A43U | -5.07 |
| C34A U129C | -3.48 |
| C34A U129G | -3.7 |
| C31U G120U | -4.56 |
| U32C G42U A43U U87C C94A C101U C102U | -5.8 |
| U32C G77U U126G | -2.53 |
| C34A U59A | -2.58 |
| U32C C34U G39C | -5.23 |
| C34A A37C A118G | -2.59 |
| C31U U78A A90G | -3.97 |
| C34A A41U G60C C99U C104A U116C U125A | -7.43 |

| Variant | polymerase ribozyme fitness (log ratio) |
| --- | --- |
| U33C U38G | -4.8 |
| U32G A43C C73U C97G G117A | -6.86 |
| U32C G57U G110A | -2 |
| U33C G63U | -3.43 |
| C34A G47U G61A C86U | -4.04 |
| C31U A37U C49G A84U C104U G113U U133G | -6.55 |
| U33A C72A U78C U87A | -5.41 |
| C34A A50U G61A G71C C123G | -6.98 |
| U32C G113U C123U | -3.78 |
| U32C A41U C89G G93U | -4.07 |
| C34A C72A C73A C97U | -3.88 |
| C31U G60A G107A | -1.03 |
| C34A C73U C82U C99A | -4.69 |
| C34A A43U G61A C88U A119G A121C | -4.91 |
| U32A A50G C85U U87A | -4.8 |
| C34G A68C G113U U126A U133C | -5.64 |
| C31G U38G G51U G52C C94G G120U | -6.47 |
| C34A G120A C124G U133A | 0.189 |
| C34A U59A C124A | -0.848 |
| C34A C124G U130G | -0.7 |
| C31U U87C U96A G120U | -5.92 |
| U32C U78C A100C | -2.28 |
| U32C G48U C56A G71U | -3.98 |
| C34A A103C | -4.26 |

| Variant | polymerase ribozyme fitness (log ratio) |
| --- | --- |
| U33A G48U G69U C97G | -3.18 |
| C34A C114A | -4.47 |
| U32C G48U | -1.13 |
| U32G A68U C70U C80A C101U A111U U126G | -8.12 |
| C31U G61U | -4.59 |
| C31U G61A | -3.81 |
| U33A G69A C79A A121G | -6.8 |
| U33G A84C | -6.66 |
| U33G G39U A50U A84U A91C C114A | -5.3 |
| C34A A41U G61C G120U | -6.86 |
| C31U C85A U106A | -2.67 |
| U33C G69A A83C U96C A119U C124A G127U | -5.27 |
| U33G | -5.67 |
| U33A | -4.27 |
| U33C | -3.31 |
| U32A C88U | -3.8 |
| U32C G36A G60U | -2.12 |
| U33A G48C G113C | -5.71 |
| U32C G36A A83C | -3.09 |
| U32C G60U U87C C101G | -5.05 |
| C34A G48A | -3.24 |
| U32C U109G | -4.99 |
| C34A G42C A121C | -4.79 |
